Test results from the supplement of paper PMC10567573.

B1: NET1 (parent)
chain: PTPAKRRSSALWSEMLDITMKESL

Variants of: B1
Assay: protein stability index of a GFP-peptide fusion (GPS, HEK-293T) (PSI 1-6); higher = more stable
Conditions: c terminus: a fixed tail appended
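Also: lentivirally expressed fusions sorted by FACS into six bins by GFP to DsRed ratio, PSI derived from sequencing read proportions per bin multiplied by bin number.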

In order of falling protein stability index:
1. PTPAKRRSSAEWSEMLDITMKESL  4.75
2. PTPAKRRSSALESEMLDITMKESL  4.65
3. PTPAKRRSSALWSEPLDITMKESL  4.32
4. PTPAKRRSSALTSEMLDITMKESL  4.19
5. PTPAKRRSSALPSEMLDITMKESL  3.9
6. PTPAKRRSSALWSEMNDITMKESL  3.84
7. PTPAKRRSSALWSEGLDITMKESL  3.83
8. PTPAKRRSSALWSEMLDITMKEWL  3.71
9. PTPAKRRSSALWSEMLDITSKESL  3.71
10. PTPAKRRSSALWSEMEDITMKESL  3.67
11. PTPAKRRSSALVSEMLDITMKESL  3.65
12. PTPAKRRSSAHWSEMLDITMKESL  3.62
13. PTPAKRRSSALHSEMLDITMKESL  3.62
14. PTPAKRRSSDLWSEMLDITMKESL  3.58
15. PTPAKRRSSANWSEMLDITMKESL  3.5
16. PTPAKRRSSGLWSEMLDITMKESL  3.48
17. PTPAKARSSALWSEMLDITMKESL  3.48
18. PTPAKRRSSALWSEMLDDTMKESL  3.39
19. PTPAKRRSSALWSEMLDINMKESL  3.39
20. PTPAKRRSSALWSEMLDGTMKESL  3.36
21. PTPAKRRSSALLSEMLDITMKESL  3.31
22. PTPAKRRSSALWSEMLDITPKESL  3.25
23. PTWAKRRSSALWSEMLDITMKESL  3.24
24. PTPAKRRSSALWSEMSDITMKESL  3.17
25. PTPAKRRSSALWSENLDITMKESL  3.13
26. PTPAKRRSSALWSEMLDVTMKESL  3.12
27. PTPAKRRSSALWSEMLDITMKWSL  3.09
28. PTPAKRRSSALWSEMLDITMKTSL  3.06
29. PEPAKRRSSALWSEMLDITMKESL  3.04
30. PTPAKRRSSALWSEMLDITMDESL  3.04
31. PTPAKRRSSALWSEMLDITMKESN  3.01
32. PTPAKRRSSALWSEQLDITMKESL  3
33. PTPAKRRKSALWSEMLDITMKESL  2.96
34. PTPADRRSSALWSEMLDITMKESL  2.95
35. PAPAKRRSSALWSEMLDITMKESL  2.93
36. PTPAKRRSSALWSEMQDITMKESL  2.92
37. PTPAKRRSSALWGEMLDITMKESL  2.86
38. PTPAKRNSSALWSEMLDITMKESL  2.85
39. PTPAKRRSSALWSEMTDITMKESL  2.85
40. PTPAKRRSSALWSEMHDITMKESL  2.85
41. PTPAKRRSSALWSEMLDRTMKESL  2.84
42. PLPAKRRSSALWSEMLDITMKESL  2.84
43. PTPAKRRSSKLWSEMLDITMKESL  2.83
44. PTPAKRRSSALWSEMLPITMKESL  2.83
45. PTPAKRRSSALWSEKLDITMKESL  2.82
46. PTPAKRESSALWSEMLDITMKESL  2.8
47. PTPAKRRSSALWSEMLDITMKEKL  2.79
48. PTPAKRRSSALYSEMLDITMKESL  2.78
49. PTPAKRRSSALWSEMLDITTKESL  2.76
50. PTPAKRRSSALWSDMLDITMKESL  2.75
51. PTPAKRRSSAPWSEMLDITMKESL  2.75
52. PDPAKRRSSALWSEMLDITMKESL  2.73
53. PTPAKRSSSALWSEMLDITMKESL  2.71
54. PTPAKRRSSALWSEMLDITMKELL  2.66
55. PTPAKRRESALWSEMLDITMKESL  2.63
56. PTPAKRASSALWSEMLDITMKESL  2.61
57. PTPAKRRSSALWSEMLDITMKESC  2.6
58. PTPAKRRSSALWSEMLDITMKESA  2.59
59. PTPAKRRSSALWSEMLDITMKQSL  2.57
60. PTPAKMRSSALWSEMLDITMKESL  2.56
61. ATPAKRRSSALWSEMLDITMKESL  2.56
62. PTPAKRRSSALWSEMLDITMKSSL  2.56
63. PTPAHRRSSALWSEMLDITMKESL  2.55
64. PTPAKRRSSLLWSEMLDITMKESL  2.55
65. PTPARRRSSALWSEMLDITMKESL  2.53
66. PTPANRRSSALWSEMLDITMKESL  2.52
67. PTPAKRRSSTLWSEMLDITMKESL  2.52
68. PTPATRRSSALWSEMLDITMKESL  2.51
69. PTPAKNRSSALWSEMLDITMKESL  2.51
70. PTPAKRRSSALWSEMLDITMVESL  2.5
71. PTPAKRVSSALWSEMLDITMKESL  2.46
72. PTKAKRRSSALWSEMLDITMKESL  2.44
73. PTPAKRRSSALWSRMLDITMKESL  2.43
74. PTPAKRRSSALWREMLDITMKESL  2.42
75. PTPAKSRSSALWSEMLDITMKESL  2.42
76. PTPAVRRSSALWSEMLDITMKESL  2.41
77. PTPAKRRSSALWSEMLDNTMKESL  2.41
78. PTQAKRRSSALWSEMLDITMKESL  2.39
79. PTPAKRYSSALWSEMLDITMKESL  2.39
80. PTPAKRRSSAYWSEMLDITMKESL  2.39
81. PTPACRRSSALWSEMLDITMKESL  2.38
82. PTPAKRRSSALWSECLDITMKESL  2.38
83. PTPAKRRSSALWSEHLDITMKESL  2.38
84. PTPAKRRSSALWSEMPDITMKESL  2.38
85. PTPAKRRSSALWSEMLDIDMKESL  2.37
86. PTPAKRRSSALWSEMLDIGMKESL  2.36
87. PTPAKRRSSALWSSMLDITMKESL  2.35
88. PRPAKRRSSALWSEMLDITMKESL  2.34
89. PTPAKRHSSALWSEMLDITMKESL  2.34
90. PTPAKRRSSALWSEMGDITMKESL  2.33
91. PTPAKRRSSALWSEMLDITMKEGL  2.33
92. PTPAKRRSSALWSEMLDITMKESV  2.33
93. PTDAKRRSSALWSEMLDITMKESL  2.32
94. PTPAKRRSSHLWSEMLDITMKESL  2.31
95. PTPAKRRSSALWSEMLIITMKESL  2.31
96. PTPAKRKSSALWSEMLDITMKESL  2.29
97. PTPAKRRSSALWSEMLDITMKESM  2.28
98. GTPAKRRSSALWSEMLDITMKESL  2.28
99. PTGAKRRSSALWSEMLDITMKESL  2.27
100. PTNAKRRSSALWSEMLDITMKESL  2.27
101. PIPAKRRSSALWSEMLDITMKESL  2.26
102. PTPAKRRWSALWSEMLDITMKESL  2.25
103. PTEAKRRSSALWSEMLDITMKESL  2.25
104. PTPAKRRSSALWSEMLGITMKESL  2.25
105. PTMAKRRSSALWSEMLDITMKESL  2.24
106. PTPAKRRSSALWSEMLDITAKESL  2.24
107. PTTAKRRSSALWSEMLDITMKESL  2.21
108. PTPVKRRSSALWSEMLDITMKESL  2.21
109. PTPAKRRSSALWSEMLDITMTESL  2.21
110. PTPAKRRSSALWSYMLDITMKESL  2.2
111. PTPAKRRSAALWSEMLDITMKESL  2.2
112. PTPAKRRSSALWSEMMDITMKESL  2.2
113. PTPAKRRSSALWSEMLDITMKEST  2.2
114. PTPAKRRSSACWSEMLDITMKESL  2.2
115. PTPAKRRSSALWSEMLDITMKNSL  2.19
116. PTSAKRRSSALWSEMLDITMKESL  2.17
117. PKPAKRRSSALWSEMLDITMKESL  2.15
118. PTPAKRMSSALWSEMLDITMKESL  2.15
119. PTPAKRRSSALWSEMLDITMKEEL  2.14
120. PTPAKRRSSALWIEMLDITMKESL  2.13
121. PTPAKRRSSALWSEMLDATMKESL  2.12
122. DTPAKRRSSALWSEMLDITMKESL  2.12
123. PTPAKRRSSALWSNMLDITMKESL  2.11
124. PMPAKRRSSALWSEMLDITMKESL  2.11
125. PTPAKRRSSSLWSEMLDITMKESL  2.1
126. PTPAKKRSSALWSEMLDITMKESL  2.1
127. PTPAKRRSSALWSEMLDITMKDSL  2.1
128. PTPAKRRSSALWSEILDITMKESL  2.07
129. PTPNKRRSSALWSEMLDITMKESL  2.07
130. PTPAKRRSSALWSEMLEITMKESL  2.07
131. ITPAKRRSSALWSEMLDITMKESL  2.07
132. PTPAMRRSSALWSEMLDITMKESL  2.06
133. PTPAKRRSSALWSEMLDITMIESL  2.06
134. PTPAKRRSSALWSEWLDITMKESL  2.05
135. PTHAKRRSSALWSEMLDITMKESL  2.05
136. PTPAKRRSSALWSEFLDITMKESL  2.04
137. PTPAKRRISALWSEMLDITMKESL  2.03
138. PTPAKRFSSALWSEMLDITMKESL  2.03
139. PTPFKRRSSALWSEMLDITMKESL  2.03
140. PTPAKRRSSALWSEMLDITMYESL  2.03
141. PTPAKRRSSALWSEMLDCTMKESL  2
142. PTPAKLRSSALWSEMLDITMKESL  1.99
143. PTPAKWRSSALWSEMLDITMKESL  1.99
144. PTPAKRRSSAFWSEMLDITMKESL  1.98
145. PTPAKCRSSALWSEMLDITMKESL  1.98
146. PTPAKRRSSALWSEYLDITMKESL  1.96
147. PTPAKRPSSALWSEMLDITMKESL  1.96
148. PTPAKRRSSASWSEMLDITMKESL  1.94
149. PTPAKRRSSALWSTMLDITMKESL  1.93
150. PTPAKRRSSALWSEMLDITMKEDL  1.93
151. PTPAKRRSSALWSEMLTITMKESL  1.92
152. RTPAKRRSSALWSEMLDITMKESL  1.92
153. PTPAKRRSSALWSEMLDITMKEYL  1.9
154. PTPAKRRSSALWSEMLDITMKEIL  1.89
155. PTPAKRRSSALWSEMLDITMKESF  1.89
156. PTAAKRRSSALWSEMLDITMKESL  1.88
157. PTPAKRRSIALWSEMLDITMKESL  1.86
158. PYPAKRRSSALWSEMLDITMKESL  1.86
159. PTPAKFRSSALWSEMLDITMKESL  1.85
160. PTPHKRRSSALWSEMLDITMKESL  1.84
161. PTCAKRRSSALWSEMLDITMKESL  1.81
162. CTPAKRRSSALWSEMLDITMKESL  1.75
163. PTPAKRRSSALWSEMLDIAMKESL  1.74
164. PTPSKRRSSALWSEMLDITMKESL  1.73
165. PTPAKRRSSALWSEMLDITWKESL  1.72
166. MTPAKRRSSALWSEMLDITMKESL  1.72
167. PTPAKRRSSALWSEMLDITMKPSL  1.72
168. PTPAKRRSSATWSEMLDITMKESL  1.71
169. PTPAKRRSSALWSEMLDIPMKESL  1.7
170. PTPAKRRSSALWSWMLDITMKESL  1.69
171. PTPAKRRSSALWSEMLDITMKEFL  1.69
172. PTPAKRRSKALWSEMLDITMKESL  1.64
173. PTPAKVRSSALWSEMLDITMKESL  1.64
174. PTYAKRRSSALWSEMLDITMKESL  1.61
175. PTPAKRRSSALWSEMLDIWMKESL  1.61
176. PTPAKRRMSALWSEMLDITMKESL  1.59
177. PTPAKRRSTALWSEMLDITMKESL  1.57
178. PTPAKRRSSALWSAMLDITMKESL  1.55
179. PCPAKRRSSALWSEMLDITMKESL  1.55
180. PTPAKRRSSALWSEMLDITLKESL  1.55
181. PTPAKRRSSALWSEMLDIEMKESL  1.43
182. PTPAKRRSSALWSEMLDITMKECL  1.4
183. PTPAKRRSSALWSEMLDITMKESW  1.36
184. PTPAKRRSSALWSEMLMITMKESL  1.26
185. PTPAKRRSSALWSVMLDITMKESL  1.25
186. PTPAKRRSSALWSEMLKITMKESL  1.25
187. PTPAKRRSSALWQEMLDITMKESL  1.12
188. PTPAKRRSSALWSEMLDITMKASL  1
